Each block holds one molecule with its values, some of them ahead of it.
Tests used:
[1] = biological target: human zcytor17, OSMRbeta and WSX-1 co-expressed on transfected cells (human); assay: cell-based or functional assay
[2] = biological target: human zcytor17 and OSMRbeta co-expressed on transfected cells (human); assay: cell-based or functional assay
[3] = biological target: human zcytor17 receptor, full length, on transfected cells (human); assay: flow cytometry; biotinylated zcytor17L at 100.0 ng/mL on BAF3 cells with zcytor17 alone, SA-PE
[4] = biological target: human zcytor17 and OSMRbeta co-expressed on transfected cells (human); assay: flow cytometry; biotinylated zcytor17L at 0.010 µg/mL on BHK cells with zcytor17 + OSMRbeta, SA-PE
[5] = biological target: human OSMRbeta, full length, on transfected cells (human); assay: flow cytometry; biotinylated zcytor17L at 10.0 µg/mL on BAF3 cells with OSMRbeta alone, SA-PE
[6] = biological target: human OSMRbeta, full length, on transfected cells (human); assay: flow cytometry; no ligand (0.00 µg/mL, background) on BAF3 cells with OSMRbeta alone, SA-PE
[7] = biological target: human zcytor17 and OSMRbeta co-expressed on transfected cells (human); assay: flow cytometry; biotinylated zcytor17L at 0.37 µg/mL on BAF3 cells with zcytor17 + OSMRbeta, SA-PE
[8] = biological target: human zcytor17 and OSMRbeta co-expressed on transfected cells (human); assay: flow cytometry; biotinylated zcytor17L at 0.12 µg/mL on BAF3 cells with zcytor17 + OSMRbeta, SA-PE
[9] = biological target: human OSMRbeta, full length, on transfected cells (human); assay: flow cytometry; biotinylated zcytor17L at 3.33 µg/mL on BAF3 cells with OSMRbeta alone, SA-PE
[10] = biological target: human zcytor17 and OSMRbeta co-expressed on transfected cells (human); assay: flow cytometry; biotinylated zcytor17L at 0.000001 µg/mL on BHK cells with zcytor17 + OSMRbeta, SA-PE
[11] = biological target: human OSMRbeta, full length, on transfected cells (human); assay: flow cytometry; biotinylated zcytor17L at 0.37 µg/mL on BAF3 cells with OSMRbeta alone, SA-PE
[12] = biological target: human zcytor17 and OSMRbeta co-expressed on transfected cells (human); assay: flow cytometry; no ligand (0.00 µg/mL, background) on BAF3 cells with zcytor17 + OSMRbeta, SA-PE
[13] = biological target: human zcytor17 receptor, full length, on transfected cells (human); assay: flow cytometry; biotinylated zcytor17L at 0.010 µg/mL on BHK cells with zcytor17 alone, SA-PE
[14] = biological target: human OSMRbeta, full length, on transfected cells (human); assay: flow cytometry; no ligand (0.0 µg/mL, background) on BHK cells with OSMRbeta alone, SA-PE
[15] = biological target: human zcytor17 and OSMRbeta co-expressed on transfected cells (human); assay: flow cytometry; biotinylated zcytor17L at 0.0001 µg/mL on BHK cells with zcytor17 + OSMRbeta, SA-PE
[16] = biological target: human zcytor17 and OSMRbeta co-expressed on transfected cells (human); assay: flow cytometry; biotinylated zcytor17L at 0.100 µg/mL on BHK cells with zcytor17 + OSMRbeta, SA-PE
[17] = biological target: human zcytor17 and OSMRbeta co-expressed on transfected cells (human); assay: flow cytometry; biotinylated zcytor17L at 2.0 µg/mL on BHK cells with zcytor17 + OSMRbeta, SA-PE
[18] = biological target: human zcytor17 and OSMRbeta co-expressed on transfected cells (human); assay: flow cytometry; biotinylated zcytor17L at 3.33 µg/mL on BAF3 cells with zcytor17 + OSMRbeta, SA-PE
[19] = biological target: human zcytor17 receptor, full length, on transfected cells (human); assay: flow cytometry; biotinylated zcytor17L at 10.0 ng/mL on BAF3 cells with zcytor17 alone, SA-PE
[20] = biological target: human zcytor17 and OSMRbeta co-expressed on transfected cells (human); assay: flow cytometry; biotinylated zcytor17L at 1.11 µg/mL on BAF3 cells with zcytor17 + OSMRbeta, SA-PE
[21] = biological target: human zcytor17 receptor, full length, on transfected cells (human); assay: flow cytometry; biotinylated zcytor17L at 0.000001 µg/mL on BHK cells with zcytor17 alone, SA-PE
[22] = biological target: human zcytor17 receptor, full length, on transfected cells (human); assay: flow cytometry; biotinylated zcytor17L at 2.0 µg/mL on BHK cells with zcytor17 alone, SA-PE
[23] = biological target: human zcytor17 receptor, full length, on transfected cells (human); assay: flow cytometry; biotinylated zcytor17L at 1.0 ng/mL on BAF3 cells with zcytor17 alone, SA-PE
[24] = biological target: human OSMRbeta, full length, on transfected cells (human); assay: flow cytometry; biotinylated zcytor17L at 1.11 µg/mL on BAF3 cells with OSMRbeta alone, SA-PE
[25] = biological target: human OSMRbeta, full length, on transfected cells (human); assay: flow cytometry; biotinylated zcytor17L at 0.12 µg/mL on BAF3 cells with OSMRbeta alone, SA-PE
[26] = biological target: human zcytor17 and OSMRbeta co-expressed on transfected cells (human); assay: flow cytometry; biotinylated zcytor17L at 0.001 µg/mL on BHK cells with zcytor17 + OSMRbeta, SA-PE
[27] = biological target: human zcytor17 and OSMRbeta co-expressed on transfected cells (human); assay: flow cytometry; biotinylated zcytor17L at 10.0 µg/mL on BAF3 cells with zcytor17 + OSMRbeta, SA-PE
[28] = biological target: human zcytor17 receptor, full length, on transfected cells (human); assay: flow cytometry; biotinylated zcytor17L at 0.00001 µg/mL on BHK cells with zcytor17 alone, SA-PE
[29] = biological target: human zcytor17 receptor, full length, on transfected cells (human); assay: flow cytometry; biotinylated zcytor17L at 0.0001 µg/mL on BHK cells with zcytor17 alone, SA-PE
[30] = biological target: human zcytor17 receptor, full length, on transfected cells (human); assay: flow cytometry; no ligand (0.0 µg/mL, background) on BHK cells with zcytor17 alone, SA-PE
[31] = biological target: human zcytor17 receptor, full length, on transfected cells (human); assay: flow cytometry; biotinylated zcytor17L at 0.100 µg/mL on BHK cells with zcytor17 alone, SA-PE
[32] = biological target: human zcytor17 receptor, full length, on transfected cells (human); assay: flow cytometry; biotinylated zcytor17L at 0.001 µg/mL on BHK cells with zcytor17 alone, SA-PE
[33] = biological target: human zcytor17 receptor, full length, on transfected cells (human); assay: flow cytometry; no ligand (0.0 ng/mL, background) on BAF3 cells with zcytor17 alone, SA-PE
[34] = biological target: human zcytor17 and OSMRbeta co-expressed on transfected cells (human); assay: flow cytometry; no ligand (0.0 µg/mL, background) on BHK cells with zcytor17 + OSMRbeta, SA-PE
[35] = biological target: human zcytor17 and OSMRbeta co-expressed on transfected cells (human); assay: flow cytometry; biotinylated zcytor17L at 0.00001 µg/mL on BHK cells with zcytor17 + OSMRbeta, SA-PE
[36] = biological target: human OSMRbeta, full length, on transfected cells (human); assay: flow cytometry; biotinylated zcytor17L at 2.0 µg/mL on BHK cells with OSMRbeta alone, SA-PE
[37] = biological target: human zcytor17 and OSMRbeta co-expressed on transfected cells (human); assay: flow cytometry; biotinylated zcytor17L at 0.04 µg/mL on BAF3 cells with zcytor17 + OSMRbeta, SA-PE
[38] = biological target: human OSMRbeta, full length, on transfected cells (human); assay: flow cytometry; biotinylated zcytor17L at 0.04 µg/mL on BAF3 cells with OSMRbeta alone, SA-PE

- proliferation of BaF3/zcytor17/WSX-1/OSMRbeta cells, Alamar Blue (activated CCRF-CEM and CCRF-HSB2 conditioned media) (fold over background) [1]: 10
- proliferation of BaF3/zcytor17/WSX-1/OSMRbeta cells, Alamar Blue (activated CD3+ selected human cell conditioned media) (fold over background) [1]: 15
- proliferation of BaF3/zcytor17/OSMRbeta cells, Alamar Blue (activated CCRF-CEM and CCRF-HSB2 conditioned media) (fold over background) [2]: 10
- proliferation of BaF3/zcytor17/OSMRbeta cells, Alamar Blue (activated CD3+ selected human cell conditioned media) (fold over background) [2]: 15
Molecule: human zcytor17lig (untagged, in conditioned media) (ligand)

- mean fluorescent intensity (MFI) [3]: 347
- mean fluorescent intensity (MFI) [4]: 328
- mean fluorescent intensity (MFI) [5]: 6
- mean fluorescent intensity (MFI) [6]: 11
- mean fluorescent intensity (MFI) [7]: 441
- mean fluorescent intensity (MFI) [8]: 364
- mean fluorescent intensity (MFI) [9]: 5
- mean fluorescent intensity (MFI) [10]: 14
- mean fluorescent intensity (MFI) [11]: 5
- mean fluorescent intensity (MFI) [12]: 7
- mean fluorescent intensity (MFI) [13]: 244
- mean fluorescent intensity (MFI) [14]: 0
- mean fluorescent intensity (MFI) [15]: 17
- mean fluorescent intensity (MFI) [16]: 2130
- mean fluorescent intensity (MFI) [17]: 3780
- mean fluorescent intensity (MFI) [18]: 508
- mean fluorescent intensity (MFI) [19]: 72
- mean fluorescent intensity (MFI) [20]: 489
- mean fluorescent intensity (MFI) [21]: 14
- mean fluorescent intensity (MFI) [22]: 3030
- mean fluorescent intensity (MFI) [23]: 17
- mean fluorescent intensity (MFI) [24]: 5
- mean fluorescent intensity (MFI) [25]: 5
- mean fluorescent intensity (MFI) [26]: 53
- mean fluorescent intensity (MFI) [27]: 531
- mean fluorescent intensity (MFI) [28]: 15
- mean fluorescent intensity (MFI) [29]: 16
- mean fluorescent intensity (MFI) [30]: 15
- mean fluorescent intensity (MFI) [31]: 1600
- mean fluorescent intensity (MFI) [32]: 39
- mean fluorescent intensity (MFI) [33]: 7
- mean fluorescent intensity (MFI) [34]: 13
- mean fluorescent intensity (MFI) [35]: 15
- mean fluorescent intensity (MFI) [36]: 13
- mean fluorescent intensity (MFI) [37]: 247
- mean fluorescent intensity (MFI) [38]: 5
B1: biotinylated human zcytor17 ligand (ligand)
chain: LPVRLLRPSDDVQKIVEELQSLSKMLLKDVEEEKGVLVSQNYTLPCLSPDAQPPNNIHSPAIRAYLKTIRQLDNKSVIDEIIEHLDKLIFQDAPETNISVPTDTHECKRFILTISQQFSECMDLALKSLTSGAQQATT
modifications: biotin

Source: US20030215838A1
